# Results published in US20230012428A1 (JIANGSU HENGRUI MEDICINE, published 2023).
# Numbering of substitutions follows the chain as printed. Names and notes keep the numbering of the source. Where two headings read alike, the source gives them in different places.
# B1: h1831-19-S58 (bispecific antibody, human IgG4 S228P, kappa)
# heavy: not shown
# light: DIVLTQSPASLAVSPGQRATITCRASESVSIHGTHLMHWYQQKPGQPPKLLIYAASNLESGVPARFSGSGSGTDFTLTINPVEAEDTANYYCQQSFEDPLTFGQGTKLEIKRTVAAPSVFIFPPSDEQLKSGTASVVCLLNNFYPREAKVQWKVDNALQSGNSQESVTEQDSKDSTYSLSSTLTLSKADYEKHKVYACEVTHQGLSSPVTKSFNRGEC
# notes: Anti-PD-L1 IgG4 antibody h1831 with SIRPγ variant S58, GS19 linker; also called PD-L1-CD47 bifunctional fusion protein
# B2: h1831-19-S79 (bispecific antibody, human IgG4 S228P, kappa)
# heavy: not shown
# light: B1 light
# notes: h1831 IgG4 with SIRPγ variant S79, GS19 linker; also called PD-L1-CD47 bifunctional fusion protein
# B3: h1831K-19-S37 (bispecific antibody, human IgG4 S228P, kappa)
# heavy: not shown
# light: B1 light with N57K
# notes: h1831K IgG4 (h1831 with light chain N53K) with SIRPγ variant S37, GS19 linker; also called h831K-19-S37; PD-L1-CD47 bifunctional fusion protein
# B4: h1831-19-S37 (bispecific antibody, human IgG4 S228P, kappa)
# heavy: not shown
# light: B1 light
# notes: h1831 IgG4 with SIRPγ variant S37, GS19 linker; also called PD-L1-CD47 bifunctional fusion protein
# B5: Anti PD-L1 IgG4 antibody h1830 (antibody, V domains shown)
# VH: QVQLQESGPGLVKPSQTLSLTCTVSGGSISDGSAYWSWIRQHPGKGLEYIGFISRAGSTYNTPSLKGRVTISRDTSKNQFSLKLSSVTAADTAVYYCARSGGWLAPFDYWGRGTLVTVSS
# VL: DIVMTQSPDSLAVSLGERATINCKSSQSLFYHSNQKHSLAWYQQKPGQPPKLLIYGASTRESGVPDRFSGSGSGTDFTLTISSLQAEDVAVYYCQQYYGYPYTFGGGTKVEIKR
# notes: also called PD-L1 monoclonal antibody h1830
# B6: Anti-CD47 antibody Hu167-IgG4 AA (antibody, V domains shown)
# VH: QVQLVQSGAEVKKPGASVKVSCKASGYTFTSYWMHWVRQAPGQGLEWMGNIDPSDSETHYNQKFKDRVTMTRDTSISTAYMELSRLRSDDTAVYYCARWGYLGRSAMDYWGQGTTVTVSS
# VL: DVQITQSPSSLSASVGDRVTITCRTSKSISKFLAWYQQKPGKAPKLLIYSGSTLQSGVPSRFSGSGSGTDFTLTISSLQPEDFATYYCQQHNEYPWTFGGGTKVEIKR
# notes: Control antibody, prepared according to WO2018095428A1; also called Hul67 IgG4AA
# B7: PD-L1 antibody h1831 (antibody, human IgG4 S228P, kappa, V domains shown)
# VH: QVQLVQSGAEVKKPGASVKVSCKASGYTFTSYWMHWVRQAPGQGLEWMGRITPSSGFAMYNEKFKNRVTMTRDTSTSTVYMELSSLRSEDTAVYYCARGGSSYDYFDYWGQGTTVTVSS
# VL: DIVLTQSPASLAVSPGQRATITCRASESVSIHGTHLMHWYQQKPGQPPKLLIYAASNLESGVPARFSGSGSGTDFTLTINPVEAEDTANYYCQQSFEDPLTFGQGTKLEIKR
# B8: HRP00052 (antibody, V domains shown)
# VH: B7 VH with T52G, S54N, A58T, M59S
# VL: B7 VL
# B9: Anti-CD47 antibody hu5F9 (antibody, human IgG4 S228P, kappa, V domains shown)
# VH: QVQLVQSGAEVKKPGASVKVSCKASGYTFTNYNMHWVRQAPGQRLEWMGTIYPGNDDTSYNQKFKDRVTITADTSASTAYMELSSLRSEDTAVYYCARGGYRAMDYWGQGTLVTVSS
# VL: DIVMTQSPLSLPVTPGEPASISCRSSQSIVYSNGNTYLGWYLQKPGQSPQLLIYKVSNRFSGVPDRFSGSGSGTDFTLKISRVEAEDVGVYYCFQGSHVPYTFGQGTKLEIKR
# notes: Control antibody
# Assays:
# [1] = target: T1, Human CD47-his (CD47-ECD-His) (human, UniProt Q08722 19-139, limits assumed); experiment: ELISA, CD47-his coated on plate
# T1 construct: also called hCD47; free human CD47 protein
# Cyno CD47-his [2] = target: T2, Cyno CD47-his (cyno, UniProt A0A2K5X523 19-139); experiment: ELISA, CD47-his coated on plate
# T2 construct: extracellular domain; not shown: His tag
# hPD-L1-His [3] = target: T3, hPD-L1-His (human, UniProt Q9NZQ7 19-239); experiment: ELISA, PD-L1-his coated on plate
# T3 construct: Bought; also called Human PD-L1-his; Human PD-L1; not shown: His tag
# Cyno PD-L1-His [4] = target: T4, Cyno PD-L1-His (cyno, UniProt G7PSE7 19-239); experiment: ELISA, PD-L1-his coated on plate
# T4 construct: Bought; not shown: His tag
# [5] = target: T5, PD-L1-Fc (prepared in-house) (human, UniProt Q9NZQ7 19-238, limits assumed); experiment: blocking ELISA, PD-L1-Fc coated, competitor biotin-labeled B7-1
# T5 construct: Prepared in-house; also called human PD-L1-Fc; not shown: Fc
# [6] = target: T5, PD-L1-Fc (prepared in-house); experiment: blocking ELISA, PD-L1-Fc coated, competitor biotin-labeled PD-1
# [7] = target: T1, Human CD47-his (CD47-ECD-His); experiment: SPR (Biacore T200), binder captured on Protein A chip, antigen in flow
# Cyno CD47-his [8] = target: T2, Cyno CD47-his; experiment: as above
# hPD-L1-His [9] = target: T3, hPD-L1-His; experiment: as above
# Cyno PD-L1-His [10] = target: T4, Cyno PD-L1-His; experiment: as above
# mPD-L1 [11] = target: T6, mPD-L1 (mouse, UniProt Q9EP73 19-238); experiment: as above
# T6 construct: Bought; also called Mouse PD-L1-his; Mouse PD-L1
# [12] = target: T1, Human CD47-his (CD47-ECD-His); experiment: ELISA, CD47-his coated on plate; remark: listed apart in the source
# Cyno CD47-his [13] = target: T2, Cyno CD47-his; experiment: ELISA, CD47-his coated on plate; remark: listed apart in the source
# [14] = target: T7, CD47 extracellular domain and human IgG1Fc fusion protein (CD47-ECD-Fc) (human); experiment: blocking ELISA, CD47-Fc coated, competitor biotin-labeled SIRPα-his
# T7 construct: also called CD47-Fc
# mPD-L1 [15] = target: T6, mPD-L1; experiment: ELISA, PD-L1-his coated on plate
# [16] = target: T8, natural CD47 on the surface of human red blood cells (human, UniProt Q08722 19-323); experiment: flow cytometry on human red blood cells, 10 µg/ml, Alexa 488 goat anti-human IgG secondary antibody, geometric mean
# T8 construct: whole, on cells; also called CD47 on the surface of red blood cells
Binder,EC50 [1] [mg/L],EC50 (Cyno CD47-his [2]) [mg/L],EC50 (hPD-L1-His [3]) [mg/L],EC50 (Cyno PD-L1-His [4]) [mg/L],IC50 [5] [mg/L],IC50 [6] [mg/L],Kd [7] [nM],Kd (Cyno CD47-his [8]) [nM],Kd (hPD-L1-His [9]) [nM],Kd (Cyno PD-L1-His [10]) [nM],binding result (mPD-L1 [11]),EC50 [12] [mg/L],EC50 (Cyno CD47-his [13]) [mg/L],IC50 [14] [mg/L],EC50 (mPD-L1 [15]) [mg/L],Kd (mPD-L1 [11]) [nM],binding result [16]
B1,0.0469,0.06,0.0947,0.237,0.16,0.122,1.77,1.94,0.0825,0.0891,no binding,–,–,–,–,–,–
B2,–,–,0.0976,0.214,0.113,0.0723,3.83,4.63,0.0874,0.121,no binding,–,–,–,–,–,–
B3,–,–,0.046,0.0972,–,–,1.25,1.48,0.0563,0.0493,no binding,0.0609,0.033,0.252,–,–,–
B4,–,–,–,–,–,–,1.16,1.39,0.0529,0.0471,no binding,–,–,–,–,–,–
B5,–,–,0.131,0.23,0.0752,0.035,–,–,0.466,0.498,–,–,–,–,0.0289,97.5,no binding (tested: 10 µg/ml)
B6,0.0703,0.0317,–,–,–,–,0.653,1.09,–,–,–,–,–,–,–,–,–
B7,–,–,0.129,0.222,0.0494,0.0266,–,–,0.0806,0.0919,no binding,–,–,–,–,–,no binding (tested: 10 µg/ml)
B8,–,–,0.163,0.196,0.0307,0.032,–,–,0.144,0.151,–,–,–,–,–,–,–
B9,–,–,–,–,–,–,–,–,–,–,–,–,–,0.263,–,–,–
